Reference: patent US7605231B2, “Gelatin derivatives and high-molecular micelle comprising the derivatives” (NOF Corporation, priority 2002, dated 2009)

Assays:
trypsin = assay: In vitro stability test to enzyme: trypsin + second solution, SDS-PAGE; format: in vitro ADME; conditions: trypsin (10 U/mL) + second solution
Procedure: (§1) Of the various PEG-grafted gelatin derivatives prepared in Example 22, 50 mg of a gelatin derivative prepared by using 2-fold mols of PEG having a molecular weight of 5000 was dissolved in 1 ml of DDW (50 mg/mL). 500 μL of the resulting solution was added to 4.5 ml of each of a Japanese Pharmacopoeia first solution (pH 1.2), a second solution (pH 6.8), pepsin (10 U/mL)+first solution or trypsin (10 U/mL)+second solution and subjected to disintegration test. The test was carried out under the conditions based on Japanese Pharmacopoeia disintegration test. The decomposition of the gelatin was evaluated by carrying out SDS-PAGE of the sample prepared after the test. Further, 500 μL of the sample was added to 4.5 mL of DDW to prepare a control group.
(§2) 50 mg of gelatin, which was not subjected to PEG grafting, was dissolved in 1 ml of DDW. 500 μL of the resulting solution was added to 4.5 mL of each of DDW, first solution, second solution, pepsin+first solution and trypsin+second solution, respectively, and then, subjected to disintegration test. The test was carried out under the conditions based on Japanese Pharmacopoeia disintegration test. The decomposition of the gelatin was evaluated by carrying out SDS-PAGE of the sample prepared after the test.

macrophage = assay: Test of macrophage adhesion property (SEM); format: cell-based, mouse; conditions: crosslinked with heating at 160° C. for 3 hours, cultured 24 hours
Procedure: 1 g of gelatin or a derivative thereof was dissolved in 10 mL of purified water while heating. This resulting polymer solution was injected into a PFA made laboratory dish and allowed to stand at 4° C. for 12 hours to conduct gelation sufficiently. The resulting gel was lyophilized and then subjected to cross-linking treatment with heating at 160° C. for 3 hours under reduced pressure in vacuum.
First, to 10-week old female ddy mouse, 2 ml of a previously sterilized Brewer's thioglycolate medium (manufactured by Difco Co.) was administered to intraperitoneal. After 5 days, the mouse was killed with blood-letting and 5 ml of PBS(−) cooled at 4° C. was administered intraperitoneal. After 5 minutes, about 4 ml of intraperitoneal effusion was recovered and was centrifuged at 8000 revolution/min for about 5 minutes to prepare a cell mass of effused macrophage. To the cell mass, 2 ml of RPMI1640 medium containing 10% FCS was added and sufficiently suspended.
Next, a specimen prepared in accordance with “the method of preparing the specimen for evaluating adhesion of macrophage” according to the above-mentioned (1) was sufficiently swelled with a RPMI1640 medium to prepare a specimen for evaluating the adhesion property of macrophage. […] Surface observation was carried out by a scanning electron microscope (Hitachi Type S-3000N) and the adhesion of macrophage was evaluated.

[1] = Critical micelle formation concentration (CMC) by PNA incorporation; format: physicochemical; conditions: isotonic phosphate buffer pH 7.4, PNA incorporation
Procedure: With regard to the PEG-grafted gelatin prepared, the critical micelle formation concentration (CMC) was measured. The CMC was measured by incorporating N-phenyl-1-naphtylamine (PNA) into the micelle. Using an isotonic phosphate buffer with a pH of 7.4, various concentrations—having PEG-grafted gelatin aqueous solutions were prepared. 0.1 ml of the PNA solution dissolved in methanol having a concentration of 5.0×10^−3M was added to 2 ml of the PEG-grafted gelatin solution and stirred for 2 minutes. Thereafter, the absorbance at a wavelength of 500 nm was measured using a spectrophotometer.
With regard to the PEG-grafted succinated gelatin prepared, the critical micelle forming concentration (CMC) was measured. The CMC was measured by incorporating N-phenyl-1-naphtyl amine (PNA) into the micelle. Using an isotonic phosphate buffer with a pH of 7.4, PEG-grafted succinated gelatin aqueous solutions with various concentrations were prepared. […] Thereafter, the absorbance at a wavelength of 500 nm was measured using a spectrophotometer.
Micelle solutions were prepared in accordance with the method of Example 3 from the PEG-grafted gelatin derivatives prepared in Example 22 and the CMC of each derivative was measured in accordance with Example 5.

[2] = In vitro disintegration test in Japanese Pharmacopoeia first and second solutions, SDS-PAGE; format: physicochemical
Procedure: as §1, §2

[3] = Solubilizing of paclitaxel; format: physicochemical; conditions: 30 μL of 10 mg/ml paclitaxel in ethanol + 500 μL of 2% aqueous solution
Procedure: A 10 mg/ml ethanol solution of paclitaxel was prepared as (a PTX solution).
A 2% gelatin aqueous solution was prepared as a gelatin solution.

pepsin = assay: In vitro stability test to enzyme: pepsin + first solution, SDS-PAGE; format: in vitro ADME; conditions: pepsin (10 U/mL) + first solution
Procedure: as §1, §2

[4] = Micelle form by affinity column (HiTrap Blue HP) that adsorbs gelatin; format: physicochemical; conditions: pH 7.4 bonding buffer, 2M NaCl elution
Procedure: The forms of the core and the shell of micelle were studied using affinity column, which adsorbs gelatin. Namely, HiTrap (Trade Mark) Blue HP column (manufactured by Amersham Pharmacia Co., Ltd.) was washed with 10 ml of an isotonic phosphate buffer with a pH of 7.4 and thereafter, 0.5 ml of a PEG-grafted gelatin micelle solution was applied. 5 ml of the isotonic phosphate buffer with a pH of 7.4 was used as a bonding buffer and 5 ml of a 2M aqueous sodium chloride solution was used as an elution buffer. The solution was fractionated with each 0.4 ml portions and the gelatin in each of the fractions was measured by the Lowery method.
The forms of the core and the shell of the micelle was studied using affinity column in which gelatin was adsorbed. Namely, HiTrap (Trade Mark) Blue HP column (manufactured by Amersham Pharmacia Co., Ltd.) was washed with 10 ml of an isotonic phosphate buffer with a pH of 7.4 and thereafter, 0.5 ml of a PEG-grafted gelatin micelle solution was applied. 5 ml of the pH isotonic phosphate buffer with a pH of 7.4 was used as a bonding buffer and 5 ml of a 2M aqueous sodium chloride solution was used as an elution buffer. The solution was fractionated with each 0.4 ml portions and the gelatin in each fraction was measured by the Lowery method. […]

For gelatin, the “lowering of the gelatin molecular weight” value (trypsin) was “a lowering of the gelatin molecular weight was confirmed”, the “adhesion of macrophage to the surface” value (macrophage) was “tightly covered with the cells such as macrophage” and the “CMC (whether admitted)” value [1] was “CMC was not admitted”. For the same substance, the “lowering of the gelatin molecular weight” value ([2]; Japanese Pharmacopoeia first solution (pH 1.2)) was “a lowering of the gelatin molecular weight was confirmed”, the “lowering of the gelatin molecular weight” value ([2]; Japanese Pharmacopoeia second solution (pH 6.8)) was “except for the control group and the second solution, a lowering of the gelatin molecular weight was confirmed” and the “appearance on mixing with paclitaxel solution” value [3] was “white precipitation”. For the same substance, the “lowering of the gelatin molecular weight” value (pepsin) was “a lowering of the gelatin molecular weight was confirmed” and the “adsorption to affinity column” value [4] was “adsorbed to the affinity column”.
